Legend:
FMRP ISO1 [1] = target: T1, FMRP ISO1 (UniProt Q06787 1-632); test: fluorescence titration (2AP); 150 mM KCl, 1 uM BSA; Fluorescence: 10 mM cacodylic acid pH 6.5, 150 mM KCl, 1 uM BSA, 200 nM RNA; EMSA: 0.5x TBE native gels at 4 C (5 mM KCl for PSD-95 RNAs), incubation at room te
FMRP ISO1 [2] = target: T1, FMRP ISO1; test: EMSA; 200 nM RNA, up to 1:2; Fluorescence: 10 mM cacodylic acid pH 6.5, 150 mM KCl, 1 uM BSA, 200 nM RNA; EMSA: 0.5x TBE native gels at 4 C (5 mM KCl for PSD-95 RNAs), incubation at room te
FMRP ISO1 [3] = target: T1, FMRP ISO1; test: EMSA; 200 nM RNA, up to 1:6 RNA:protein; Fluorescence: 10 mM cacodylic acid pH 6.5, 150 mM KCl, 1 uM BSA, 200 nM RNA; EMSA: 0.5x TBE native gels at 4 C (5 mM KCl for PSD-95 RNAs), incubation at room te

Binder	Kd (FMRP ISO1 [1]) [nM]	other results
GGGAAAAGGGAGGGAUGGG (structured_RNA, A11 replaced by 2-aminopurine) [PSD-95 Q11234 11-2AP]	128	–
UAGGUAGUUUCAUGUUGUUGGG (ssRNA) [miR-196a-1]	–	binding result (FMRP ISO1 [2]): no binding
GGGAGGGAGGGUGGG (structured_RNA, A4 replaced by 2-aminopurine) [PSD-95 Q2 4-2AP]	195	–
UCCCUGAGACCCUUUAACCUGUGA (ssRNA) [miR-125a]	–	binding result (FMRP ISO1 [3]): no binding

From PMC6529005, “FMRP - G-quadruplex mRNA - miR-125a interactions: Implications for miR-125a mediated translation regulation of PSD-95 mRNA”
